Test results: patent publication CN115536747A

Target: 人TROP2 on cells (表达TROP2的CHO细胞系; MCF, MDA-MB-231, MDA-MB-468, HCC1395 breast cancer cells) (human) (UniProt P09758)
Assay: flow cytometry, scFv-Fc on CHO cells expressing TROP2

Chain of UniProt P09758 (P09758 27-323): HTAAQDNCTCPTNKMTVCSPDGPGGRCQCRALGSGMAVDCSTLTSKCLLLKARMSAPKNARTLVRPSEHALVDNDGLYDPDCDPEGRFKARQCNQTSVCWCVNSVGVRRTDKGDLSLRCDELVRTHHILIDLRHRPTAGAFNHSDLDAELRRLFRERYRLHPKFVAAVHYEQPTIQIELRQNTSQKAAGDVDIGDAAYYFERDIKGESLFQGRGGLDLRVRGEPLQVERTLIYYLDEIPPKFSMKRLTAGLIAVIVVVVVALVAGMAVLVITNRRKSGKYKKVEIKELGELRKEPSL

B1: 1F7 scFv-Fc蛋白 (from pFH-1F7; scFv fused to human IgG4 Fc) (Fc fusion, not shown: a dimerising Fc or GST)
chain: QVQLVQSGAEVKKPGASVKVSCKASGYTFTSYGINWVRQATGRGLEWMGWMNPNSGNTGYAQKFQGRVTITADESTSTAYMELSSLRSEDTAVYYCARPNTGGDGAFDIWGQGTMVTVSSGGSSRSSSSGGGGSGGGGDIQLTQSPSSVSASVGDRVTITCRASQGISSWLAWYRQKPGKAPKLLIYAASSLQSGVPSRFSGSGSGTDFTLTISSLQPEDFATYYCQQANSFPITFGQGTRLEIK
Q: How did the 阳性百分数 turn out when B1 was run?
A: 89.3%
